How the values were obtained:
[1] = target: Respiratory Syncytial Virus fusion glycoprotein (RSV F) on RSV-A2 virus (Respiratory Syncytial Virus subtype A (RSV-A2)); assay: cell-based or functional assay
[2] = target: RSV postfusion F (postF), F deltaFP (Respiratory Syncytial Virus); assay: BLI, IgG on anti-human IgG sensor, 100 nM antigen
[3] = target: RSV prefusion F (preF), DS-Cav1 (Respiratory Syncytial Virus); assay: BLI, IgG on anti-human IgG sensor, 100 nM antigen
[4] = target: RSV postfusion F (postF, F deltaFP) (Respiratory syncytial virus); assay: BLI, IgG on sensor, 100 nM antigen
[5] = target: RSV prefusion F (preF, DS-Cav1) (Respiratory syncytial virus); assay: BLI, IgG on sensor, 100 nM antigen

B1: ADI-41218 (antibody, V domains shown)
VH: QVQLVQSGAEVKKPGASVKVSCKASGYTFISDGISWVRQAPGQGLEWMGWINPHNENTNYAQKFQGRVTMTTDTSTSTAYLELRGLRSDDTAVYYCARDPYHWSYLDYWGQGTLVTVSS
VL: QSVVTQPPSVSGAPGQRVTITCTGSSSNIGANSDVHWYQQIPGTAPKLLIFGNSNRPSGVPDRFSGSKSGTSASLAITGLQAEDEADYYCQSYDRSLSGSRVFGGGTRLTVL
[1]
  Neutralization IC50 (RSV subtype A): > 25 µg/mL
[2]
  Kd: 0.729 nM

B2: ADI-41153 (antibody, V domains shown)
VH: EVQLVESGGGLVKPGGSLRLSCAASQFTFSTYDMSWVRQAPGKGLEWVASISSGSTYIYYADSVKGRFTISRDNAKHSLFLQMKSLRAEDTALYYCARQVLYDRGGYYLYYFDHWGQGTLVTVSS
VL: DIQVTQSPSSLSASVGDRVTITCRASQTIASYLNWYQQKPGKAPNLLIYAASNLQSGVPSRFSGSGSGTEFTLTINTLQPEDFATYYCQQSYNFPYTFGQGTKVEIK
[1]
  Neutralization IC50 (RSV subtype A): > 25 µg/mL
[2]
  Kd: 0.445 nM
[3]
  Kd: 0.928 nM

B3: ADI-41159 (antibody, V domains shown)
VH: EVQLVESGAEVKKPGESLKISCKGSGYSFTTYWIGWVRQMPGKGLEWMGIMYPGDSQTRYSPSFQGQVTISADKSISTAYLQWSSLKASDTAMYYCARGGYCSGGSCYRGLDYWGQGTLVTVSS
VL: EIVMTQSPSSLSASVGDRVTITCRASQSISSFLNWYQQKPGKAPNLLIYAASSLLSGVPSRFSGSGSGTDFTLTISSLQPEDFATYYCQQSHSTPQTFGQGTKLEIK
[1]
  Neutralization IC50 (RSV subtype A): > 25 µg/mL
[2]
  Kd: 9.87 nM

B4: ADI-41219 (antibody, V domains shown)
VH: EVQLVESGGGLVQPAGSLRLSCAASGFTFSNYVMNWVRQAPGKGLEWVSYISSSGRTIHYADSVKGRFTISRDNAKNSLYLEMNSLRAEDTAVYYCARDPNYGGNSNRFDSWGQGTLVTVSS
VL: DIVMTQTPSSLSASVGDRVTITCRASQTISNYLNWYQQKPGKAPKLLIFAASSLQSGVPSRFSGSGSGTDFTLTISSLQPEDFATYYCQQSYSAPRVTFGPGTKVDIK
[1]
  Neutralization IC50 (RSV subtype A): > 25 µg/mL
[2]
  Kd: 1.28 nM

B5: ADI-41342 (antibody, V domains shown)
VH: QVQLVQSGAEVKKPGSSVKVSCKASGGTLTSYGVSWVRQAPGQGLEWMGGIIPIFGTVDYAQKFQGRVTITADEPTSTAYMELSSLTSDDTAVYYCARDPWVSGPVEFYYYFDVWGRGTLVTVSS
VL: DIVLTESPATLSLSPGERATLSCRASQSINNRYLAWYQQKPGQAPRLLIFGASSRATGIPDRFSGSGSGTDFTLTISRLEPEDFAVYYCQQYGSTPPTFGQGTKVEIK
[4]
  Kd: 0.591 nM
[5]
  Kd: 3.99 nM

B6: ADI-41341 (antibody, V domains shown)
VH: QVQLVQSGAEVKKPGSSVKVSCKASGGTFSSYATHWVRQAPGQGLEWMGGIIPIFGRATYAQKFQGRVTISADESTSTAYMELSSLRSEDTAVYYCARGRDDRSGDHIAFLYHYGMDVWGQGSTVTVSS
VL: QSVLTQPPSVSAAPGQKVSISCSGSSSNIGINHASWYQHLPGTAPKLLIYDNNKRPSGIPDRFSGSKSGTSATLGISGLQTGDEAAYYCGTWDTGLSAVVFGGGTKLTVL
[4]
  Kd: 1.97 nM
[5]
  Kd: 2.83 nM

B7: ADI-41176 (antibody, V domains shown)
VH: EVQLVESGPGLVKPSETLSLTCTVSGGSIGNDYYYWGWIRQPPGKGLEWIGNISYSGSTYYNPSLKSRVTISVGTSKNQFSLKLTSVSAADTAVYHCVGRTFWRDCSSTSCYEYYFDYWGQGTLVTVSS
VL: ETTLTQSPTSLSASVGDRVTITCRASQGISNYLAWYQQKPGKVPKVLIYAASTLQSGVSSRFSGSGSGTGFTLTISNLQPEDVATYYCQNYNSAPWTFGQGTKVEIK
[1]
  Neutralization IC50 (RSV subtype A): > 25 µg/mL
[2]
  Kd: 4.07 nM

B8: ADI-41156 (antibody, V domains shown)
VH: QVQLVQSGGGLVQPGGSLRLSCVASGFIFSSYEMNWVRQAPGKGLEWVSYISSSGSTIYYADSVKGRFTISRDNAKNSLYLQMNSLGAEDTAVYYCARAILYFDYWGQGTLVTVSS
VL: GIRLTQSPSSLSASVGDRVTITCRASQSITNYINWYQQKPGKAPKLLIYAISRLQSGVPSRFSGSGSGTDFTLTISSLQPEDFATYYCQQSYSTMYTFGQGTKVEIK
[1]
  Neutralization IC50 (RSV subtype A): > 25 µg/mL
[2]
  Kd: 1.7 nM

B9: ADI-41347 (antibody, V domains shown)
VH: EVQLVESGPGLVKPSGTLSLTCAVSGGSVSSDNWWSWVRQPPGKGIEWIGEIYPSGGTNYNPSLNSRVTISVDKSKNQFSLKLNSVTAADTAIYYCARAPFDSSGYHSNSVWGQGTLVTVSS
VL: ETTLTQSPLSLPVTPGEPASISCRSSQSLLHSNGHNYLDWYVQKPGQSPQLLIYLSSNRASGVPDRFSGSGSGTDFTLRISRVEAEDVGVYYCMQPLQTPQTFGQGTKVEIK
[4]
  Kd: 0.521 nM
[5]
  Kd: 2.6 nM

B10: ADI-41194 (antibody, V domains shown)
VH: QVQLQESGPGLVKPSQMLSLTCTVSGDSISSGDYYWSWIRHHPGKGLEWIGYISYSGSTYNNPSLKSRVTVSVDTSKNQFFLKLTSVTAADTAVYYCARATKPYHSYFYMDVWGKGTTVTVSS
VL: EIVLTQSPGTLSLSPGERATLSCRASQSGSRSYLAWYQQRPGQAPRLLIYGASNRATGIPDRFSGSGSGTDFTLTISRLEPEDFAVYYCQQYGNAPTFGGGTKVDIK
[1]
  Neutralization IC50 (RSV subtype A): > 25 µg/mL
[2]
  Kd: 1.16 nM

B11: ADI-41164 (antibody, V domains shown)
VH: QVQLVQSGGDLVQPGGSLRLSCAASGFTFSDYEVNWVRQAPGKGLEWLSYISSSGRIIHYADSVRGRFTISRDNAKNSLYLQMNSLRAEDTAVYYCARAAGQWLVTYYYYGMDVWGQGTTVTVSS
VL: QSVMTQSPSTLSASVGDTVTITCRASQSIINRLAWYQQKPGKPPKLLIYKSSSSESGVPSKFSGSGSGTEFTLTINSLQPDDFATYYCQHYNSYLYTFGQGTKVEIK
[1]
  Neutralization IC50 (RSV subtype A): > 25 µg/mL
[2]
  Kd: 0.962 nM

B12: ADI-41223 (antibody, V domains shown)
VH: QVQLVESGGGVVQPGRSLRISCAASGFTFSNYGMHWVRQAPGKGLEWVAVLSYDGSNEYYADSVKGRFTISRDNSKNTLYLQMNSLRAEDTAVYYCAKNLNDYNISWYKCFDLWGRGTLVTVSS
VL: QPVLTQPASVSGSPGQSITISCTGTSSDVGGYNYVSWYQHHPGKAPKLIIYDVNNRPSGVSNRFSGSKSGNTASLTISGLQAEDEADYICSSYTTITTFVVFGGGTKLTVL
[1]
  Neutralization IC50 (RSV subtype A): > 25 µg/mL
[2]
  Kd: 1.81 nM

B13: ADI-41149 (antibody, V domains shown)
VH: QVQLVQSGGGVVQPGRSLRLSCAASGFTFSDYGMHWVRQAPGKGLEWVAVIWFDGSNKNYADSVKGRFTISRDNSMNTLYLQMNNLRAEDTAVYYCARAPYSFWSGYYLDYWGQGSLVTVSS
VL: DIVMTQSPATLSVSPGERATLSCRASQSISSNLAWYQQKSGQAPRLLIYGASTRATGIPARFSGSGSGTEFTLTISSLQSEDFAVYSCQQYSKWPQTFGQGTKVEIK
[1]
  Neutralization IC50 (RSV subtype A): > 25 µg/mL
[2]
  Kd: 0.857 nM
[3]
  Kd: 4.34 nM

B14: ADI-41144 (antibody, V domains shown)
VH: EVQLVQSGAEVKKPGGSVKVSCKASGYTFSEYYMHWVRQAPGQGPEWVGRINPKSGRTNYAQNFQGRVTMTRDRSISTVYMDLSRLRSDDTAVYYCARWEVMDYGSGIYYNQDHFDYWGQGTLVTVSS
VL: DIRVTQSPSSLSASVGDRVTITCRASQDITNYLAWFQQKPGKAPKSLMYAASTLQSGVPSRFSGSGSGTDFTLTISSLQPEDFATYYCQQYKTYPITFGQGTRLEIK
[1]
  Neutralization IC50 (RSV subtype A): 0.37 µg/mL
[2]
  Kd: 0.759 nM
[3]
  Kd: 0.94 nM

B15: ADI-41146 (antibody, V domains shown)
VH: QVQLVQSGAEVKKPGESLKISCKGSGHSFATFWIGWVRQVPGNGLELMGIINLGDSDTKYSPSFQGQVTISADESIGTAYLQWSSLKASDTAMYYCARVSLPHYYYYMDVWGKGTTVTVSS
VL: DIVMTQSPSSVSASVGDRVTITCRASQGISTWLAWYRQKPGKAPELLIYAASRLQSGVPSRFSGSGSGTDFTLTISSLQPEDFATYYCQQANSFLGAFGPGTKLEIK
[1]
  Neutralization IC50 (RSV subtype A): > 25 µg/mL
[2]
  Kd: 0.746 nM
[3]
  Kd: 4.44 nM

B16: ADI-41345 (antibody, V domains shown)
VH: EVQLVQSGAEVRKPGESLKISCKGSGYNFASYWIAWVRQMPGKGLEWMGIIFPGDSDTRYSPSFQGQVTISVDKSISTAYLQWSSLKASDTAIYYCATSKYTFGYLDWGQGTLVTVSS
VL: NFMLTQPHSVSESPGKTVTISCTRSSGSIASNYVQWYQQRPGSAPTTVIYEDNQRPSGVPDRFSGSIDSSSNSASLTISGLKTEDEADYYCQSYDTSNQVFGTGTKVTVL
[4]
  Kd: 0.349 nM
[5]
  Kd: 2.29 nM

B17: ADI-41346 (antibody, V domains shown)
VH: QVQLVQSGPEVKKPGESLKISCTLSASGLTTYWIGWVRQMPAKGLEWMGIIFPGDSDTRYSPSFQGQVTISADKSTNTAYLQWSGLKASDTAIYYCATLQTPVTGLDQWGQGTLVTVSS
VL: NFMLTQPHSVSESPGKTVTISCTRSSGNIARSYVQWYQQRPGSAPTTVIHEDDQRPSGVPDRFSGSIDTSSNSASLTISGLKTEDEADYYCQSYDPSNYVFGTGTKVTVL
[4]
  Kd: 0.267 nM
[5]
  Kd: 1.88 nM

B18: ADI-41174 (antibody, V domains shown)
VH: EVQLVESGAEVEKPGASVKVSCKASGYTFINYDIIWVRQAPGQGLEWMGWISGYKGNTNYAQKLQGRITMSTDTSTRTAYMELRSLTSDDTAVYYCARVGGTARSTTPYYYGMDVWGQGTTVTVSS
VL: SYVLTQPPSVSVSPGQTARITCSGDAVPKQFSYWYQQKPGQAPVLVIYKDIERPSGIPERFSGSSSGTTVTLTISGVQAEDEADYYCQSAHTSGTYHVFGTGTKLTVL
[1]
  Neutralization IC50 (RSV subtype A): > 25 µg/mL
[2]
  Kd: 0.751 nM

B19: ADI-41324 (antibody, V domains shown)
VH: EVQLVESGGGLVQPGGSLRLSCAASGFTVSNNYMRWVRQAPGKGLEWVSVIYSSGSTDYADSVKGRFTISRDNSKNTLYLQMNSLRAEDTAVYYCARERTLFYYDSSGFFDYWGQGTLVTVSS
VL: ETTLTQSPGTLSLSPGERATLSCRASQSVDSSYLAWYQQKPGQAPRLLIYGASNRATGIPDRFSGSGSGTDFTLTISRLEPEDFAVYYCQQYGRSLTFGGGTKLEIK
[4]
  Kd: 0.426 nM
[5]
  Kd: 2.47 nM

Source: US20260258115A1
